The values below come from patent US20140140998.

In data set [1] the target is T1, GST-TβRI intracellular domain fusion protein.
T1 chain: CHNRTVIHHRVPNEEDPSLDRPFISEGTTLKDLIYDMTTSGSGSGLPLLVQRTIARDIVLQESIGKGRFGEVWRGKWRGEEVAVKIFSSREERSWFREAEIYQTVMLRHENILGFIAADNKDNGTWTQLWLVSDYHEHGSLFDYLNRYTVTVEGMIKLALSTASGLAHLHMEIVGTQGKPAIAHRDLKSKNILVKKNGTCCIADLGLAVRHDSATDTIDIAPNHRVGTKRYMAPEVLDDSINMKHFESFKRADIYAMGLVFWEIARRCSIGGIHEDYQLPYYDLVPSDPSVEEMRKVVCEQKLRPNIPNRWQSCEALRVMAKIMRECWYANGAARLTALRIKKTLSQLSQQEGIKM

The target in data set [2] is T2, type I receptor of transforming growth factor beta (TβRI), endogenous, full length.
T2 chain: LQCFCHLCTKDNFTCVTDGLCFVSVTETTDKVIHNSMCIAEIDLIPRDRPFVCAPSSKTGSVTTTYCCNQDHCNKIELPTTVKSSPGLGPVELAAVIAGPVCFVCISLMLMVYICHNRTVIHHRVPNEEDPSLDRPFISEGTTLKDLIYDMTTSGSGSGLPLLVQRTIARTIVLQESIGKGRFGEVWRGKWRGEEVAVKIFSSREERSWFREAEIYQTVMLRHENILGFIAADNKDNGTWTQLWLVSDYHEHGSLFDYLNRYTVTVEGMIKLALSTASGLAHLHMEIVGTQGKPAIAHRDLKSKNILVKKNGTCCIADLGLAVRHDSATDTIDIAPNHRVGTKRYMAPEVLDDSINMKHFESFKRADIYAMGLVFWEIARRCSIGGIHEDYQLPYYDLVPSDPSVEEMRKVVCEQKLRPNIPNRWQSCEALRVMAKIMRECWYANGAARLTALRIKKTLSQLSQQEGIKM

B1: recombinant glutathione-S-transferase-tagged TRAF6 (GST-TRAF6) fusion protein (protein)
chain: MSLLNCENSCGSSQSESDCCVAMASSCSAVTKDDSVGGTASTGNLSSSFMEEIQGYDVEFDPPLESKYECPICLMALREAVQTPCGHRFCKACIIKSIRDAGHKCPVDNEILLENQLFPDNFAKREILSLMVKCPNEGCLHKMELRHLEDHQAHCEFALMDCPQCQRPFQKFHINIHILKDCPRRQVSCDNCAASMAFEDKEIHDQNCPLANVICEYCNTILIREQMPNHYDLDCPTAPIPCTFSTFGCHEKMQRNHLARHLQENTQSHMRMLAQAVHSLSVIPDSGYISEVRNFQETIHQLEGRLVRQDHQIRELTAKMETQSMYVSELKRTIRTLEDKVAEIEAQQCNGIYIWKIGNFGMHLKCQEEEKPVVIHSPGFYTGKPGYKLCMRLHLQLPTAQRCANYISLFVHTMQGEYDSHLPWPFQGTIRLTILDQSEAPVRQNHEEIMDAKPELLAFQRPTIPRNPKGFGYVTFMHLEALRQRTFIKDDTLLVRCEVSTRFDMGSLRREGFQPRSTDAGV
For B1, the “polyubiquitination of TβRI in an in vitro ubiquitination assay” value in data set [1] is on record as “TRAF6 was shown to induce the polyubiquitination of TβRI in an in vitro ubiquitination assay”.

B2: tumor necrosis factor receptor-associated factor 6 (TRAF6), endogenous (protein)
chain: B1 chain
As to B2, the “Lys63-linked polyubiquitination of TβRI and formation of the TβRI ICD after TRAF6 siRNA” value in data set [2] is “a knock-down of endogenous TRAF6 in PC-3U cells with an anti-TRAF6 siRNA also resulted in loss of both Lys63-linked polyubiquitination in TβRI and the formation of the TβRI ICD in response to TGFβ stimulation”.
